# Laboratory results published in the DeepSol protein solubility set.
# Assay: soluble on expression in E. coli; label from the status in PepcDB or PDB records
row,Sequence,soluble on expression in E. coli
1,MAGFFNKLTGFFTISRQHNPPFEAASKSRRMGGFDPAKKHINKAIEECGDTIVARSRWLYDNESLYGSATEEWVSAAVSDGIKPYPRIEGFQEEKKKLLDLWWQWVDEADYDEDANFYGLQATIAREVFLTGECFVRLHYVDLYGRSGVPFQLQIYPTEMLDLTYNGPAETEGNYIRMGIEFNASGKRVAYHFWEHHPYDDCPANRAFKSQDRIRVPAEMVLHIKERRIAGQLRGSPKITRSMTKIFQLESYDDAELDRKRTAALFAVFITGKESHDAALEENREQTRLPKKPEEAADVDKIYPGSVNMVDGEKQITFSTPVEVGGSYEAFQFRNILKICSALNMPYAVVTGDVTRGNFSNVRTSIIQFRRHVKQWREHIIAFQFNRIVWERFVEMAVLSGRVHLPGWEENPLPWLQCESFAPPLEMIDPNKDISAEKEEIRAGLKTRRMALAERGFDIDSIHAELEEEHTDARARGLSFDTDMAASSGDNQIIDTTDSDPSETYESNQGSEAHKNGE,not soluble
2,MAGFISNFFGVGDSDSQYEEPTEASQAAAPTESATNTRSTPKVVPMQGGKSVNSKIALFEPKIYSDVKEIATQLLKNQAVIINFDHVDDEMARRIVDFLTGTVFAINGEIERIGDEIFLCIPENYEVSGSTTSQFDTSKLLEHHHHHH,not soluble
3,MAGIAMKLAKDREAAEGLGSHERAIKYLNQDYETLRNECLEAGALFQDPAFPPVSHSLGFKELGPNSSKTYGIKWKRPTELLSNPQFIVDGATRTDICQGALGDSWLLAAIASLTLNETILHRVVPYGQSFQEGYAGIFHFQLWQFGEWVDVVVDDLLPTKDGKLVFVHSAQGNEFWSALLEKAYAKVNGSYEALSGGCTSEAFEDFTGGVTEWYDLQKAPSDLYQIILKALERGSLLGCSINISDIRDLEAITFKNLVRGHAYSVTDAKQVTYQGQRVNLIRMRNPWGEVEWKGPWSDNSYEWNKVDPYEREQLRVKMEDGEFWMSFRDFIREFTKLEICNLTPDALKSRTLRNWNTTFYEGTWRRGSTAGGCRNYPATFWVNPQFKIRLEEVDDADDYDSRESGCSFLLALMQKHRRRERRFGRDMETIGFAVYQVPRELAGQPVHLKRDFFLANASRAQSEHFINLREVSNRIRLPPGEYIVVPSTFEPNKEGDFLLRFFSEKKAGTQELDDQIQANLPDEKVLSEEEIDDNFKTLFSKLAGDDMEISVKELQTILNRIISKHKDLRTNGFSLESCRSMVNLMDRDGNGKLGLVEFNILWNRIRNYLTIFRKFDLDKSGSMSAYEMRMAIEAAGFKLPCQLHQVIVARFADDELIIDFDNFVRCLVRLEILFKIFKQLDPENTGTIQLDLISWLSFSVLGKLAAAIEHHHHHHMHYSNIEANESEEERQFRKLFVQLAGDDMEVSATELMNILNKVVTRHPDLKTDGFGIDTCRSMVAVMDSDTTGKLGFEEFKYLWNNIKKWQGIYKRFETDRSGTIGSNELPGAFEAAGFHLNQHIYSMIIRRYSDETGNMDFDNFISCLVRLDAMFRAFRSLDKNGTGQIQVNIQEWLQLTMYS,soluble
4,MAGMFQDLLYLNLIGAVRAITAAQGIKIRISGEENVPESGGAVVVVNHTGYLDFIYAGYPFRKFRRYIRYMAKGDVFKHPVAGPLLREMRHIPVDRIDGTAAFDQAVDMLKKGELVGIFPEATISRSFEIKTLRPGAVRMAQAAGVPIIMVMVVGSQRVWTKGQKKNLIHPGSPIHMKVFPAWYPEGDANEATQELRRRMITGLEEVWSDYQAEEPIVPGALWVPARLGGGAPTFDEAQAEDEKVEQERRRVRVLTEEIAQLTERIKQATKAGASAVDAARHRVEDVLHGEVPAKADAGKALSVLKDTVDEFVEEVVSSAKEGKDRVMDAGEQLRRSVADLYGQAVTASQVNPVVVQATAQVSMLLDRLPQRKDAPKVELPRVLVLSVDGAVAAYPEVTLSPSVLSQVAALSQQHTVVLTTISGMDRVVALARQVAQESGADVCVSASAGAVAATVSDTDVSVLHECVVSDELRAAVQECVDSLGLDVEWKGAHHGVVSGLGADPDLWQELSQVVRVVPLPGEPDRCVIVSPEASVEAAVQTCVGDVWDEVLVCAADASEAGALARAGHRVAVVSAPVVVLREAAQWCDRPDKDGVINFLDKHFITPESV,not soluble
5,MAGQEFEKLLFYIVTVPFFVRAEPTTGELINPQAGAPFFLATAATTMDYEVEMVITSEAGYLLMRDNAKKVKVRPGVEQTVYDFIKMAKDAGVKIYLCTPSLDLTDIYKEEDVNKEICDGILGGAAFLDKLMSGEYAVITL,not soluble
6,MAGRPKDPTINKKIYTEIQRLLETTHFRDITIDQISENTGISKATIYRRWKDKSSIIMSAFIEQSQYIAIHNQDNLYDDLFQFLVKIKDIYKTKLGSAVIEILISHQQMEARETFMTNYFNHNRKVLKEIVRKHIQEEEQDLFIDLIFSPIYFNILIKPETLDENYIKKMLNQVLRIYH,not soluble
7,MAGTISDYGGRQQIWNLGNNIIDTKKLVDLELQALEMKKSPYTTQKQTLTNEKNVYASMKKEFGNLVQVFKDLYAFKGDEKKTTLSKDGFMKAQADAAAIPGTYTITVERVAERHQITTAPLTPSKTPESMEQKFSLDLKLGVDDVFQINGKEVKISKDMTYKDLVNKINNGNYGASVYTLGDQLFFTSTTAGEAGELKLTDGANGFLQNIGLVTSAKNPDGTNVVAHQVTGAINAEYTINGIKGTSKTNKIDTIPGLTINLEKETTEPIKLTIEDSDIKNSIDLIKKMKDEYNKAVKSLDLFAGENGVMQGSNVSFAINNAMTGIFKFSQDDKYLFSFGIQIDKKGNMTLDEEKLKTAFKENPESTKQFFFGLNGLGHDTEKKLDGIFGDEGIIGKRSKSIEKQVTDLERKIQDIDTVNKEKQKTIIDKYAKLESQLALLDSQLKTIQAMTKTKSDD,not soluble
8,MAGTRDYDHLFKLLIIGDSGVGKSSLLLRFADNTFSENYITTIGVDFKIRTMDINGQRVKLQIWDTAGQERFRTITSTYYRGTHGVVVVYDVTNGESFGNVKRWLQEIENNCDSVQKVLVGNKCEENERRVVLESDARNYAQSMNISFFETSAKEDKNVEPMFTCITSLVLTAKLANPQSASKDQSRTGGVSLKDNSGSTNQKKKCKCG,not soluble
9,MAGVRQHGWRAIPAVCSEYGADTLPDRYRSDGRCLLFRQQAGISALKQELEVKTPYRAMNHPVIGVVTKADLASMEQISLVKCWLREAGAHNVLVTSAVNNNGVTELFALLHTEEGCR,not soluble
10,MAGYALKRLMTEYKELTTRPPEGIIAAPIDEDNFFEWECLITGPEETCFANGVFPARITFPQDYPLSPPKMRFTCGIFHPNIYADGRVCISILHAPGDDPTGYELSNERWSPVQSIEKILLSVVSMLAEPNDESPANVSAAKMWREDRAQFEKIADSLVRKTLCLPASEV,not soluble
11,MAHHHHHHHRSAAGTIWEFDGGACGARTALVKVDRVDRRYQDLVTRGFNGRFRGRPDVVYVVHTADQVVDAVNQAMAAGQRIAVRSGGHCFEGFVDDPAVRAVIDMSQMRQVFYDSGKRAFAVEPGATLGETYRALYLDWGVTIPAGVCPQVGVGGHVLGGGYGPLSRRDGVVADHLYAVEVVVVDASGRARKVVATSAADDPNRELWWAHTGGGGGNFGIVTRYWFRTPGATGTDPSQLLPKAPTSTLRHIVTWDWSALTEEAFTRIIDNHGAWHQSNSAAGTPYASMHSVFYLNSRAAGQILLDIQIDGGLDGAEALLNDFVAAVNEGTGVEPAVQRSTEPWLRATLANKFDTGGFDRTKSKGAYLRKPWTAAQAATLYRHLSADSQVWGEVSLYSYGGKVNSVPETATATAQRDSIIKVWMSATWMDPAHDDANLAWIREIYREIFATTGGVPVPDDRTEGTFINYPDVDLVDERWNTSGVPWYTLYYKGNYPRLQKVKARWDPRDVFRHALSVRPPG,soluble
12,MAHHHHHHLPALKLALEYIVPCMNKHGICVVDDFLGKETGQQIGDEVRALHDTGKFTDGQLVSQKSDSSKDIRGDKITWIEGKEPGCETIGLLMSSMDDLIRHCNGKLGSYKINGRTKAMVACYPGNGTGYVRHVDNPNGDGRCVTCIYYLNKDWDAKVSGGILRIFPEGKAQFADIEPKFDRLLFFWSDRRNPHEVQPAYATRYAITVWYFDADERARAKVKYLTGEKGVRVELNKPSDSVGKDVF,soluble
